# Values of other authors as cited in PMC9254699 (Biomaterials science, 2021).
# Tests used:
# TGF-β1 [1] = target: T1, TGF-β1 (Homo sapiens, UniProt P01137)
# TGF-β1 [2] = target: T1, TGF-β1; remark: listed apart in the source
# T1 sequence (P01137 279-390 limits assumed, species assumed): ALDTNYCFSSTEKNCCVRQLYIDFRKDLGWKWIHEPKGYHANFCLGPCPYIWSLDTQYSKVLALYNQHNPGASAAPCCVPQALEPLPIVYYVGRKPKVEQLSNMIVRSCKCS
"activity against TGF-β1, preclinical anti-fibrotic (TGF-β1 [1])",Molecule,direct binding to TGF-β1 or its receptors (TGF-β1 [2])
activity against TGF-β1,"decorin: molecule with activity against TGF-β1, explored preclinically as anti-fibrotic (protein, UniProt P07585 31-359, looked up) Decorin: DEASGIGPEVPDDRDFEPSLGPVCPFRCQCHLRVVQCSDLGLDKVPKDLPPDTTLLDLQNNKITEIKDGDFKNLKNLHALILVNNKISKVSPGAFTPLVKLERLYLSKNQLKELPEKMPKTLQELRAHENEITKVRKVTFNGLNQMIVIELGTNPLKSSGIENGAFQGMKKLSYIRIADTNITSIPQGLPPSLTELHLDGNKISRVDAASLKGLNNLAKLGLSFNSISAVDNGSLANTPHLRELHLDNNKLTRVPGGLAEHKYIQVVYLHNNNISVVGSSDFCPPGHNTKKASYSGVSLFSNPVQYWEIQPSTFRCVYVRSAIQLGNYK",do not directly bind TGF-β1 or its receptors
activity against TGF-β1,"γ-interferon: molecule with activity against TGF-β1, explored preclinically as anti-fibrotic (protein, UniProt P01579 24-161, looked up) Interferon gamma: QDPYVKEAENLKKYFNAGHSDVADNGTLFLGILKNWKEESDRKIMQSQIVSFYFKLFKNFKDDQSIQKSVETIKEDMNVKFFNSNKKKRDDFEKLTNYSVTDLNVQRKAIHELIQVMAELSPAAKTGKRKRSQMLFRG",do not directly bind TGF-β1 or its receptors
